# Test results reported in patent US12295987B2, “Method of using a GIP/GLP1 co-agonist for diabetes” (Eli Lilly and Company, priority 2018, dated 2025).
# Numbered stars: 1 amine (or outer) side, 2 acyl side, 3 side chain; on linkers, the order of the positions; unused ones are H or OH. Square brackets hold non-standard residues; d marks the D form. Side chains are listed from the residue outwards. Ends that are not written are not given here. * marks the point of attachment. C20 diacid = O=C(O)CCCCCCCCCCCCCCCCCCC(=O)*; γGlu = O=C(O)[C@H](CCC(=O)[*:2])N[*:1]; AEEA = NCCOCCOCC(=O)O; Aib = CC(C)(N)C(=O)O
# Target: T1, human gastric inhibitory peptide receptor (hGIPR) (Homo sapiens, UniProt P48546)
# T1 construct: expressed in transfected cells; host or cells: HEK293
# T1 sequence (P48546 22-466): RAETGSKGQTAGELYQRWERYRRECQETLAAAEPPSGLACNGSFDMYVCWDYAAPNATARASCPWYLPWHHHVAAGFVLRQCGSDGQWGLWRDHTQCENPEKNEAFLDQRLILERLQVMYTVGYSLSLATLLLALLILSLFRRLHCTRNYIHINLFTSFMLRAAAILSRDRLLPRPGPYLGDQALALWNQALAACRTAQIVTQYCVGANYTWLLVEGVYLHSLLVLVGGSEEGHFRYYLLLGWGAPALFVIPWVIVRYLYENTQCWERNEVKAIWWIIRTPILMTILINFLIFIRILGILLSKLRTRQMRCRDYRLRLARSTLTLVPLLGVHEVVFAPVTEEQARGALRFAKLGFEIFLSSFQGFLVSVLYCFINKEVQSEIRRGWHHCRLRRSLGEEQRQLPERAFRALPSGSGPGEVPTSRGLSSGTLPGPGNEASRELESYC
# Experiment: cAMP pharmacological functional assay in presence of 0.1% casein, hGIPR
# Assay type: cell-based
# Settings: ratio of hGIPR to hGLP1R cAMP EC50 ratios
row,Substance,[hGIPR/hGLP1R] EC50 Ratio
1,"Y-Aib-EGT-αMeF(2F)-TSD-4Pal-SI-αMeL-LDEK((2-[2-(2-Amino-ethoxy)-ethoxy]-acetyl)2-CO—(CH2)16—CO2H)AQ-Aib-EFI-(D-Glu)-YLIEGGPSSGAPPPS-NH2 (YXEGTXTSDXSIXLDEKAQXEFIXYLIEGGPSSGAPPPS; Aib, αMeF(2F), 4Pal, αMeL, D-Glu; lipidated K; amide; (2)..(2) Xaa at position 2 is Aib; (6)..(6) Xaa at position 6 is alpha-methyl-Phe(2F); (10)..(10) Xaa at position 10 is 4Pal; (13)..(13) Xaa at position 13 is alpha-methyl-Leu; MOD_RES (17)..(17) Lys at position 17 is chemically modified by conjugation of the epsilon-amino group of the Lys side chain with (2-[2-(2-amino-ethoxy)-ethoxy]-acetyl)2-CO-(CH2)16-CO2H; (20)..(20) Xaa at position 20 is Aib) [Peptide 205]",3.91
2,"Y-Aib-EGT-αMeF(2F)-TSDYSI-Aib-LD-Orn-K((2-[2-(2-Amino-ethoxy)-ethoxy]-acetyl)2-(γGlu)-CO—(CH2)18—CO2H)AQ-Aib-EFI-(D-Glu)-YLIEGGPSSGAPPPS-NH2 (YXEGTXTSDYSIXLDXKAQXEFIXYLIEGGPSSGAPPPS; Aib, Orn, αMeF(2F), lipidated Lys, D-Glu, amide; (2)..(2) Xaa at position 2 is Aib; (6)..(6) Xaa at position 6 is alpha-methyl-Phe(2F); (13)..(13) Xaa at position 13 is Aib; (16)..(16) Xaa at position 16 is Orn; MOD_RES (17)..(17) Lys at position 17 is chemically modified by conjugation of the epsilon-amino group of the Lys side chain with (2-[2-(2-amino-ethoxy)-ethoxy]-acetyl)2-(gamma-Glu)-CO-(CH2)18- CO2H; (20)..(20) Xaa at position 20 is Aib;) [Peptide 250]",4.34
3,"Y-Aib-EGT-αMeF-TSDYSI-αMeL-LDKK((2-[2-(2-Amino-ethoxy)-ethoxy]-acetyl)2-(γGlu)-CO—(CH2)18—CO2H)AQ-Aib-DFIEYLIEGGPSSGAPPPS-NH2 (YXEGTXTSDYSIXLDKKAQXDFIEYLIEGGPSSGAPPPS; Aib, αMeF, αMeL; acylated lysine C20 diacid; amide; (2)..(2) Xaa at position 2 is Aib; (6)..(6) Xaa at position 6 is alpha-methyl-Phe; (13)..(13) Xaa at position 13 is alpha-methyl-Leu; MOD_RES (17)..(17) Lys at position 17 is chemically modified by conjugation of the epsilon-amino group of the Lys side chain with (2-[2-(2-amino-ethoxy)-ethoxy]-acetyl)2-(gamma-Glu)-CO-(CH2)18- CO2H; (20)..(20) Xaa at position 20 is Aib; MOD_RES (39)..(39) Ser at po) [Peptide 140]",3.24
4,"Y-Aib-EGT-αMeF(2F)-TSD-4Pal-SI-αMeL-LDEK((2-[2-(2-Amino-ethoxy)-ethoxy]-acetyl)2-(εK)-CO—(CH2)18—CO2H)AQ-Aib-EFI-(D-Glu)-YLIEGGPSSGAPPPS-NH2 (YXEGTXTSDXSIXLDEKAQXEFIXYLIEGGPSSGAPPPS; Aib, αMeF(2F), 4Pal, αMeL, D-Glu; εK-lipidated K; amide; (2)..(2) Xaa at position 2 is Aib; (6)..(6) Xaa at position 6 is alpha-methyl-Phe(2F); (10)..(10) Xaa at position 10 is 4Pal; (13)..(13) Xaa at position 13 is alpha-methyl-Leu; MOD_RES (17)..(17) Lys at position 17 is chemically modified by conjugation of the epsilon-amino group of the Lys side chain with (2-[2-(2-Amino-ethoxy)-ethoxy]-acetyl)2-(epsilon-Lys)-CO-(CH2)18- CO2H; (20)..(20) Xaa at pos) [Peptide 207]",3.87
5,Y-Aib-EGTFTSDYSILLDKIAQ-Aib-AFK((2-[2-(2-Amino-ethoxy)-ethoxy]-acetyl)2-(γGlu)-CO—(CH2)18—CO2H)EYLIEGGPSSGAPPPS-NH2 (Y[Aib]EGTFTSDYSILLDKIAQ[Aib]AFK([AEEA-AEEA-γGlu-C20 diacid])EYLIEGGPSSGAPPPS-NH2) [Peptide 33],8.67
6,"Y-Aib-EGT-αMeF(2F)-TSDLSI-αMeL-LD-Orn-K((2-[2-(2-Amino-ethoxy)-ethoxy]-acetyl)2-(γGlu)-CO—(CH2)16—CO2H)AQ-Aib-EFI-(D-Glu)-αMeY-LIEGGPSSGAPPPS-NH2 (YXEGTXTSDLSIXLDXKAQXEFIXXLIEGGPSSGAPPPS; Aib, Orn, αMe residues, lipidated Lys, D-Glu, amide; (2)..(2) Xaa at position 2 is Aib; (6)..(6) Xaa at position 6 is alpha-methyl-Phe(2F); (13)..(13) Xaa at position 13 is alpha-methyl-Leu; (16)..(16) Xaa at position 16 is Orn; MOD_RES (17)..(17) Lys at position 17 is chemically modified by conjugation of the epsilon-amino group of the Lys side chain with (2-[2-(2-amino-ethoxy)-ethoxy]-acetyl)2-(gamma-Glu)-CO-(CH2)16- CO2H; (20)..(20) Xaa at positi) [Peptide 238]",6.37
7,"Y-Aib-EGT-αMeF(2F)-TSDYSI-αMeL-LDEK((2-[2-(2-Amino-ethoxy)-ethoxy]-acetyl)2-(γGlu)-CO—(CH2)16—CO2H)AQ-Aib-EFI-(D-Glu)-YLIEGGPSSGAPPPS-NH2 (YXEGTXTSDYSIXLDEKAQXEFIXYLIEGGPSSGAPPPS; Aib, αMeF(2F), αMeL, D-Glu; lipidated K; amide; (2)..(2) Xaa at position 2 is Aib; (6)..(6) Xaa at position 6 is alpha-methyl-Phe(2F); (13)..(13) Xaa at position 13 is alpha-methyl-Leu; MOD_RES (17)..(17) Lys at position 17 is chemically modified by conjugation of the epsilon-amino group of the Lys side chain with (2-[2-(2-amino-ethoxy)-ethoxy]-acetyl)2-(gamma-Glu)-CO-(CH2)16- CO2H; (20)..(20) Xaa at position 20 is Aib; (24)..(24) Xaa at positi) [Peptide 221]",5.66
8,"Y-Aib-EGT-αMeF(2F)-TSD-4Pal-SI-αMeL-LDEK((2-[2-(2-Amino-ethoxy)-ethoxy]-acetyl)2-(γGlu)-CO—(CH2)18—CO2H)AQ-Aib-EFI-Aib-YLIEGGPSSGAPPPS-NH2 (YXEGTXTSDXSIXLDEKAQXEFIXYLIEGGPSSGAPPPS; Aib, αMeF(2F), 4Pal, αMeL; lipidated K; amide; (2)..(2) Xaa at position 2 is Aib; (6)..(6) Xaa at position 6 is alpha-methyl-Phe(2F); (10)..(10) Xaa at position 10 is 4Pal; (13)..(13) Xaa at position 13 is alpha-methyl-Leu; MOD_RES (17)..(17) Lys at position 17 is chemically modified by conjugation of the epsilon-amino group of the Lys side chain with (2-[2-(2-amino-ethoxy)-ethoxy]-acetyl)2-(gamma-Glu)-CO-(CH2)18- CO2H; (20)..(20) Xaa at posit) [Peptide 189]",3.61
9,Y-Aib-EGTFTSDYSILLDKIAQ-Aib-AFIEYLIEGGPSSGAPPK((2-[2-(2-Amino-ethoxy)-ethoxy]-acetyl)2-(γGlu)-CO—(CH2)18—CO2H)S-NH2 (Y[Aib]EGTFTSDYSILLDKIAQ[Aib]AFIEYLIEGGPSSGAPPK([AEEA-AEEA-γGlu-C20 diacid])S-NH2; N-terminus assumed; SMILES CC[C@H](C)[C@H](NC(=O)[C@H](CCCCN)NC(=O)[C@H](CC(=O)O)NC(=O)[C@H](CC(C)C)NC(=O)[C@H](CC(C)C)NC(=O)[C@@H](NC(=O)[C@H](CO)NC(=O)[C@H](Cc1ccc(O)cc1)NC(=O)[C@H](CC(=O)O)NC(=O)[C@H](CO)NC(=O)[C@@H](NC(=O)[C@H](Cc1ccccc1)NC(=O)[C@@H](NC(=O)CNC(=O)[C@H](CCC(=O)O)NC(=O)C(C)(C)NC(=O)[C@@H](N)Cc1ccc(O)cc1)[C@@H](C)O)[C@@H](C)O)[C@@H](C)CC)C(=O)N[C@@H](C)C(=O)N[C@@H](CCC(N)=O)C(=O)NC(C)(C)C(=O)N[C@@H](C)C(=O)N[C@@H](Cc1ccccc1)C(=O)N[C@H](C(=O)N[C@@H](CCC(=O)O)C(=O)N[C@@H](Cc1ccc(O)cc1)C(=O)N[C@@H](CC(C)C)C(=O)N[C@H](C(=O)N[C@@H](CCC(=O)O)C(=O)NCC(=O)NCC(=O)N1CCC[C@H]1C(=O)N[C@@H](CO)C(=O)N[C@@H](CO)C(=O)NCC(=O)N[C@@H](C)C(=O)N1CCC[C@H]1C(=O)N1CCC[C@H]1C(=O)N[C@@H](CCCCNC(=O)COCCOCCNC(=O)COCCOCCNC(=O)CC[C@H](NC(=O)CCCCCCCCCCCCCCCCCCC(=O)O)C(=O)O)C(=O)N[C@@H](CO)C(N)=O)[C@@H](C)CC)[C@@H](C)CC) [Peptide 47],7.35
